From the supplement of paper PMC9170038

tested on: K4 kissing-loop RNA reporter; experiment: apparent KD of K4 kissing-loop reporter; higher = weaker reporter binding; settings: Eterna round: R107; input ligand: none
Method: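 RNA-MaP round R107: designed RNA switches with theophylline, tryptophan, arginine or FMN aptamers are transcribed on-chip within common flanks. They are titrated with a labelled K4 kissing-loop RNA reporter in RNA-MaP buffer (100 mM Tris pH 7.5, 80 mM KCl, 4 mM MgCl2), without ligand or with the indicated ligand. Median apparent KD per design.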
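Also: bound reporter read as fluorescence of individual clusters on recovered sequencing chips by microscopy, with normalized cluster intensities fitted with a binding model.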

Point of comparison: “AAAUAGAUCAGUCACCCAGUGAUGUUGGAAGGAGCGUGCGAAAGCACAGGUAGGUCGCCAAAAUAAAAGUGGCUGAUCAAAAUAA [#SwitchBubble 5 #K4Early]”, “apparent KD of K4 kissing-loop reporter” value 389 nM. Against it:
- AUUUAGACGAGUGAUGUUCGUGAUAUUACAGAGGAUAUGCUUAAAAGCAGAAGGCUGUAUUUAUAUUUGUUAUGUAAUUUUAAAA [JR_ExcFMNA_Sub005] — 5-fold lower, 78 nM
- UGACUGGAUGGAAGGAGCGCUAAACUCCUAGUGAUGUUAGGGAUACGAGGCAAAGCCUCGAAGCAGGUAGGUCGCCAUCUAGUCU [FiskerMod 21 - Jieux - Same State - Arginine B] — 2.7-fold lower, 146 nM
- UAUUAAUUGUCAGGAUAUCGUAUUCGAGUGAUGUUCGUAUAUCGACGAUAGUCGAUUCUAUCUAUACGAGAAGGGACAUUAUUUA [JR_SSFMNB_Sub007] — 2.8-fold higher, 1090 nM
- CAUAGGAAACUAUGUAUCUCUCUUACUGAAGGAGCGCGUGAAAACGCAGGUAGGUCGCAGAAUUUAAAAGAGAGUGAUGUUCUCU [Ex Arginine A K4 8] — within 1.5-fold, 332 nM
- UUAGUUAGAUUAUUAUUAGCCUACAAUGCUAAGGAUAUCCGAAUUCGGAGAAGGUAGUGAUGUUACUUAAGUAGGCACUAACAUU [AK7 Exc FMN A] — 2.4-fold higher, 932 nM
- GAGCCAGAGGUUGCUGCGGGUUUCAGAGAUACCAGCCGUAUUGUAGGCCCUUGGCAGCUCGAGUGAUGUUCGAGCCGCCUCUGGC [Eredorxela] — 3.2-fold lower, 120 nM
- AGCCACGACGCGGCCGCCACUGCCAUUAAACGUAAGGCAAAUCUAAUCUUCGAGUGAUGUUCGGGCAGGACCGGGCGGAGACUUG [theeternabot_sameState_KL_Trp_B_18] — within 1.5-fold, 478 nM
- GCGCCGGUCUGCUUUAGAGUGAUGUUCUCCCGAGGACCGGUACGGCCGCCACUCGGCCAACGCUAUUAUCUUUGAUCCGCGGUGC [theeternabot_exclusion_KL_Trp_A_41] — 2.6-fold higher, 1000 nM
- UCAUCAUGAUGGUAGUAACCGCAUUGGGAGCGAGGACCGGUACGGCCGCCACUCGAAAUGUACAUAGCAGUAGUGAUGUUGCUGC [theeternabot_sameState_KL_Trp_A_47] — 3.2-fold lower, 121 nM
- AAAAUAAACCAGUGAUGUUGGUGUCCAGAUACCAGCGAUAAAAGUCGCCCUUGGCAGCUGUGGACGUACAAAAUAAGUACGUCCU [MatMod 2 - Jieux - Same State - Theophylline A] — 2.2-fold higher, 872 nM
- AUGGACUCUUCGGAGUCCGCCUUAAGGGAUACCAGUGAUGUUGGUCACCCUUGGCAGCCUAGAAAGGAAGCCACCAAAGGUGGCA [Omei v1 mod #OpenEnded #Sliding] — 3-fold lower, 128 nM
- AUUCGUUUUUGUGAUACCAGACAUGUGAGUGAUGUUUACAUAUAUAUUUAAUAUUUAGCUGUCCCUUGGCAGCACUGUUUAUUUA [JR_ExcTheophyB_Sub003] — within 1.5-fold, 393 nM
- AGCGUCCCUACGGCCGCCACUGGGAGUGAUGUUCCCAGGUUAGGCCUGAGGAUACUAUGGAUCGCCAGGACCGGGUAGCGACCAA [Zaarin] — 4.6-fold lower, 85.4 nM
- AGAGUACGAAAGUACUCCUCUACACACUGUCGAGGACCGGUACGGCCGCCACUCGAGUUGAGUGAUGUUCGAUAGUGUGUAGAGA [Omei KL Tryp A SS C v4] — 13-fold lower, 30 nM
- GUCUGCUGUAUCGAUACCAGAAGUGGGCAGUGAUGUUGUUCGGGUACAUCGCGUCUCGAGUUCCCUUGGCAGCGAUUGUACGAAU [theeternabot_exclusion_KL_Theo_B_12] — 1.8-fold higher, 694 nM
- CGCGGCCGGCCGGAUACCAGUGACCCGCUGGAAACCGCGGGCCCAGAGUGAUGUUCGGGACACCCUUGGCAGCCGCCUGGGCGUG [#2 Same State - Theophylline B Attempt #2 (HarryS)] — within 1.5-fold, 440 nM
- GGUAGCAUGGCGGCCGCCACUUUAUACUCGGUCGUUGGCGUCGUAAGUGAUGUUUACAUUCGCAAAAGGACCGGGCCAUGCUACC — 4.8-fold lower, 81.2 nM
- UCCUAGGCUCGAAAGAGCCUAGGUUAGACUCAGGAUAUCUGGAAACAGAGAAGGGAGCUACUAGUGAUGUUAGGAAUUCCCAUUU — 4-fold lower, 97.5 nM
- AGACUUCACCGAAGGAGCGACGUGGCCUAGUGAUGUUAGGCACGAGAGAAAUCUCGUAUACGUCAGGUAGGUCGCGGUGAAGUCA [Omei KL Arginine B SS C v6] — 2.4-fold lower, 165 nM
- AGACUACCAACACUGUCAAUAGACAGUGACUAGGAUAUGCUGAUAAGCAGAAGGAGUGAUGUUCCUAAUAGAAAGGUAGUCAAAU [FmnAX 17 #SwitchBubble #StaticStem #K4Early] — 1.5-fold lower, 252 nM

same assay, conditions: Eterna round: R107; input ligand: theophylline 20 uM

Point of comparison: “AGCUCAGAGUGACUCGAUAAGAGUCACAAACGAGGACCGGUACGGCCGCCACUCGAAAUAAUGAGAGUGAUGUUCUCGCUGAGCA [#SwitchBubble 2 #StaticStem #K4Late]”, “apparent KD of K4 kissing-loop reporter” value 145 nM. Against it:
- UCCUAGGUUCGUCGGCGAAAGCCCUGCGAAGGAGCGUGCGAAAGUACAGGUAGGUCGCGCAGUGAUGUUGCACCUAGGUAAUAAA [#07 K4 Arginine A Exclusion] — 6.2-fold higher, 892 nM
- ACACUAUCGUCAUAGACGGUAGUGAAAUCACAGGAUAUAAGUGAUGUUAGAAGGGUGAAAGACUGUAUCGAAUAGAUACAGUCAA [FmnA 3 #K4BetweenAptamer #OpenEnded] — 5.9-fold higher, 861 nM
- AAGAGGUAGGCGGCCGCCACUUGUUGUGAACACAUACGAGCCAGUGAUGUUGGUAUUGUGGGCGGAAGGACCGGGCCUACCUGAA [Exclusion - Tryptophan B (Freestyle 20)] — 2.3-fold higher, 328 nM
- UGGGCCGCCUGAGGAUAUAGAGACGAGUGAUGUUCGUGGAUCAGAGCCAGUGAUGUUGGGUUAUUUCUAGAAGGCGGGCGAACUU [Exclusion FMN B GF10] — within 1.5-fold, 118 nM
- UCGAAGGAUGGAAGGAGCGCUCGUCAGUCCUGCGAGUGAUGUUCGUGGGUAAAUAGUCGCGAGCAGGUAGGUCGCCAUCUUGAGC [Laxe] — within 1.5-fold, 126 nM
- GGAGGUUGGUGCGAUACCAGACCAGCAGUGAUGUUGCGCCAAAGUGAGUGAUGUUCACCGGUCCCUUGGCAGCGCAUUCCUUUAG [Same State Theophylline B GF 14] — 7.7-fold higher, 1120 nM
- UGAUCUGCAGUGAUGUUGCAGUAGCUGUCAGAGGAUAUCAGACUCAUGAGAAGGCUGACAAUGUCUAACAGCACAAUGCUGUUCA [FMN A SS t6] — within 1.5-fold, 197 nM
- GCUAUGGUAGGAAGGAGCGCUUACUCGGUCAUAAGAGUGAUGUUCGAGACCGAGUAUUUAUAGCAGGUAGGUCGCCUACUAUAGC [Arginine B K4 6] — within 1.5-fold, 199 nM
- GGAUAGGAUAGAGGAUAUGGGUUAGGCAAGAAUAACUUGUCUAGUAAAUCCAUGAGGAGUGAUGUUCCAGAAGGCUGUCCUAUCG [MatMod 4 - Jieux - Exclusion - FMN B] — within 1.5-fold, 127 nM
- UGGAGUUGACGAAAAGUCAACUCCUGAGAUACCAGUGACGAAAGUCACCCUUGGCAGCUCACUGCCAGUGAUGUUGGUUCAUAAG [#03 K4 Theophylline A Same State] — 1.7-fold higher, 245 nM
- CCAUCGCUGUUCGAUACCAGUCAUUUUUUAUUUUAUUUUUUUUUUGGAGUGAUGUUCCAAGACCCUUGGCAGCGGAUAGUGAUGG [whbob_SS_Theo_B_th80] — the same, 145 nM
- UACUAUAUUCUGUCGUUUUUAUUAGUUUGUCAGGAUAUCGUUUAUUCGAGAAGGGACACUAUCUAGUGAUGUUAGAUAUUUCUUU [JR_Nu3_ExcFMNA_Sub030] — 1.6-fold lower, 93.2 nM
- UGUCAUUGGUCGGCCGCCACUUCAUGUAGAGUGAUGUUUUGUAGGACGGAUCGAAAGAUCUGUCGAAGGACCGGGACCGAUGACU [FiskerMod 15 - Jieux - Same State - Tryptophan B] — 1.6-fold higher, 235 nM
- UGUCAUGGAAACAUGAACGUUAAAAUAAAUCGAGGACCGGUACGGCCGCCACUCGUAUAGCGGUCAGUGAUGUUGACUGUAGUAA [KL-SSTryp-A form2 sub8] — within 1.5-fold, 116 nM
- UGACUGGACUGAAGGAGCGAGCGAGACAAAGUCUCGAAAAUUCAGUGAUGUUGAUAUAUAACUCAGGUAGGUCGCAGUCUAGUCU [ArgBS 5 #SwitchBubble #StaticStem] — 3.2-fold higher, 464 nM
- UUUAACGAGUGAUGUUCGAAAAGUAAUAGUUAGGAUAUCGUUUUUUCGAGAAGGAACUUCGAAGUGAUACGAAAGUAUCGCUUCG [FMN A 1] — 2.4-fold higher, 351 nM
- CCUUCUCAUUUCCGUUAUCAUUGCCUUAGGAAGGAUAUCAUUAUUUUGAGAAGGUCCGUGGUCUAUUUUCCGAGUGAUGUUUGGU [theeternabot_exclusion_KL_FMN_A_45] — 1.9-fold higher, 277 nM
- AAUAAAAUCACGGCCGCCACUGAUAUCCAUAUUAGGAGUGAUGUUCCUAUGACUAUAUAAUUUAACAGGACCGGGUGAAUAUUUA [JR_SSTryptoB_Sub024] — within 1.5-fold, 115 nM
- GUGGUACAGGCGGCCGCCACUAGUGAUGUUAGUGAUAGAAGAUAUAGUAAAUAUCGGCAUUUAGAUAGGACCGGGCCUGGUGGUG [xxfxcmullin] — 2.1-fold higher, 309 nM
- CACUGGGCGAGUGAUGUUCGCUCACGUGAUACCAGUGCCAUCCAACACCCUUGGCAGCAUGCGGGCAGUGAUGUUGUCCAAAGAA [Exclusion Theophylline A GF9] — within 1.5-fold, 208 nM
- AUUUAGACGAGUGAUGUUCGUGAUAUUACAGAGGAUAUGCUUAAAAGCAGAAGGCUGUAUUUAUAUUUGUUAUGUAAUUUUAAAA [JR_ExcFMNA_Sub005] — 1.5-fold lower, 95.5 nM
- UGACUGGAUGGAAGGAGCGCUAAACUCCUAGUGAUGUUAGGGAUACGAGGCAAAGCCUCGAAGCAGGUAGGUCGCCAUCUAGUCU [FiskerMod 21 - Jieux - Same State - Arginine B] — within 1.5-fold, 171 nM
- UAUUAAUUGUCAGGAUAUCGUAUUCGAGUGAUGUUCGUAUAUCGACGAUAGUCGAUUCUAUCUAUACGAGAAGGGACAUUAUUUA [JR_SSFMNB_Sub007] — 5.5-fold higher, 804 nM
- CAUAGGAAACUAUGUAUCUCUCUUACUGAAGGAGCGCGUGAAAACGCAGGUAGGUCGCAGAAUUUAAAAGAGAGUGAUGUUCUCU [Ex Arginine A K4 8] — 1.7-fold higher, 247 nM
- UUAGUUAGAUUAUUAUUAGCCUACAAUGCUAAGGAUAUCCGAAUUCGGAGAAGGUAGUGAUGUUACUUAAGUAGGCACUAACAUU [AK7 Exc FMN A] — 6.4-fold higher, 925 nM
- GAGCCAGAGGUUGCUGCGGGUUUCAGAGAUACCAGCCGUAUUGUAGGCCCUUGGCAGCUCGAGUGAUGUUCGAGCCGCCUCUGGC [Eredorxela] — within 1.5-fold, 129 nM
- AGCCACGACGCGGCCGCCACUGCCAUUAAACGUAAGGCAAAUCUAAUCUUCGAGUGAUGUUCGGGCAGGACCGGGCGGAGACUUG [theeternabot_sameState_KL_Trp_B_18] — 5.3-fold higher, 772 nM
- GCGCCGGUCUGCUUUAGAGUGAUGUUCUCCCGAGGACCGGUACGGCCGCCACUCGGCCAACGCUAUUAUCUUUGAUCCGCGGUGC [theeternabot_exclusion_KL_Trp_A_41] — 7.7-fold higher, 1120 nM
- UCAUCAUGAUGGUAGUAACCGCAUUGGGAGCGAGGACCGGUACGGCCGCCACUCGAAAUGUACAUAGCAGUAGUGAUGUUGCUGC [theeternabot_sameState_KL_Trp_A_47] — within 1.5-fold, 116 nM
- AAAAUAAACCAGUGAUGUUGGUGUCCAGAUACCAGCGAUAAAAGUCGCCCUUGGCAGCUGUGGACGUACAAAAUAAGUACGUCCU [MatMod 2 - Jieux - Same State - Theophylline A] — 3.6-fold higher, 529 nM
